Laboratory results published in US20070141662.

Biological target: CISNN116 (NT1-C3-hIL21) (UniProt Q9HBE4)
Sequence (Q9HBE4 other isoform, or with tags, fused parts or gaps): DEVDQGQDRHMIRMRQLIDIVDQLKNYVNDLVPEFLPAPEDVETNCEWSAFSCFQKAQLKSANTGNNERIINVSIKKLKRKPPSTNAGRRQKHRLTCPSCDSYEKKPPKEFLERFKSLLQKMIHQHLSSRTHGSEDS

Caspase 3
completion of the proteolysis reaction (Maldi analysis), 1 hour at 37° C.: Maldi analysis showed 87% completion of the reaction
